Numbered stars: 1 amine (or outer) side, 2 acyl side, 3 side chain; on linkers, the order of the positions; unused ones are H or OH. Square brackets hold non-standard residues; d marks the D form. Ends that are not written are not given here. * marks the point of attachment. X2 = 4‑amino‑1‑((3-fluoro-4-methylbenzyl)glycyl)piperidine‑4‑carboxylic acid, Cc1ccc(CN(CC(=O)N2CCC(N[*:1])(C(=O)[*:2])CC2)[*:3])cc1F; X10 = 3‑(2-(2-(3-(4-iodophenyl)propanamido)ethoxy)ethoxy)propanoyl, O=C(CCc1ccc(I)cc1)NCCOCCOCCC(=O)*; X6 = 3‑(2-(2-(3-(p-tolyl)propanamido)ethoxy)ethoxy)propanoyl, Cc1ccc(CCC(=O)NCCOCCOCCC(=O)*)cc1; DOTA = O=C(O)CN1CCN(CC(=O)O)CCN(CC(=O)*)CCN(CC(=O)O)CC1; Butanoyl(4-(4-I-phenyl)) = O=C(CCCc1ccc(I)cc1)*; Api(1-amidino) = N=C(N)N1CCC(N)(C(=O)O)CC1; Phe(4-CN) = N#Cc1ccc(C[C@H](N)C(=O)O)cc1; HO(CH2CH2O)2CH2CH2CO = O=C(CCOCCOCCO)*; d2Nal = N[C@H](Cc1ccc2ccccc2c1)C(=O)O; Palmitoyl = CCCCCCCCCCCCCCCC(=O)*; d4Pal = N[C@H](Cc1ccncc1)C(=O)O; Cha = N[C@@H](CC1CCCCC1)C(=O)O; Lauroyl = CCCCCCCCCCCC(=O)*; Octanoyl = CCCCCCCC(=O)*; Ahx = NCCCCCC(=O)O; azaGly = NNC(=O)O; Sar = CNCC(=O)O

The results in this text go back to patent publication US20250312499A1, “KISSPEPTIN RECEPTOR (KISS1R) TARGETED THERAPEUTICS AND USES THEREOF” (priority 2024, published 2025).

The labels stand for the following.
B1: Compound 356 (peptide)
peptide: X6-[dY]K(DOTA)NT[Cha][azaGly]L[4‑amino‑1‑carbamimidoylpiperidine‑4‑carboxylic acid(Sarcosine)][dW]-NH2
B2: Compound 368 (peptide)
peptide: {DOTA-NH‑PEG2‑propanoyl}-[dY][d4Pal]NTF[azaGly]L[X2]W-NH2
B3: Compound 331 (peptide)
peptide: Lauroyl-[dY]K(DOTA)NTF[azaGly]L[Api(1-amidino)]Y-NH2
SMILES: CCCCCCCCCCCC(=O)N[C@H](Cc1ccc(O)cc1)C(=O)N[C@@H](CCCCNC(=O)CN1CCN(CC(=O)O)CCN(CC(=O)O)CCN(CC(=O)O)CC1)C(=O)N[C@@H](CC(N)=O)C(=O)N[C@H](C(=O)N[C@@H](Cc1ccccc1)C(=O)NNC(=O)N[C@@H](CC(C)C)C(=O)NC1(C(=O)N[C@@H](Cc2ccc(O)cc2)C(N)=O)CCN(C(=N)N)CC1)[C@@H](C)O
B4: Compound 357 (peptide)
peptide: X6-[dY]K(DOTA)NT[Cha][azaGly]L[4‑amino‑1‑carbamimidoylpiperidine‑4‑carboxylic acid(Sarcosine)]W-NH2
B5: Compound 333 (peptide)
peptide: X6-[dY]K(DOTA)NTF[azaGly]L[Api(1-amidino)][Phe(4-CN)]-NH2
SMILES: Cc1ccc(CCC(=O)NCCOCCOCCC(=O)N[C@H](Cc2ccc(O)cc2)C(=O)N[C@@H](CCCCNC(=O)CN2CCN(CC(=O)O)CCN(CC(=O)O)CCN(CC(=O)O)CC2)C(=O)N[C@@H](CC(N)=O)C(=O)N[C@H](C(=O)N[C@@H](Cc2ccccc2)C(=O)NNC(=O)N[C@@H](CC(C)C)C(=O)NC2(C(=O)N[C@@H](Cc3ccc(C#N)cc3)C(N)=O)CCN(C(=N)N)CC2)[C@@H](C)O)cc1
B6: Compound 329 (peptide)
peptide: Lauroyl-[dY]K(DOTA)NTF[azaGly]L[Api(1-amidino)]W-NH2
SMILES: CCCCCCCCCCCC(=O)N[C@H](Cc1ccc(O)cc1)C(=O)N[C@@H](CCCCNC(=O)CN1CCN(CC(=O)O)CCN(CC(=O)O)CCN(CC(=O)O)CC1)C(=O)N[C@@H](CC(N)=O)C(=O)N[C@H](C(=O)N[C@@H](Cc1ccccc1)C(=O)NNC(=O)N[C@@H](CC(C)C)C(=O)NC1(C(=O)N[C@@H](Cc2c[nH]c3ccccc23)C(N)=O)CCN(C(=N)N)CC1)[C@@H](C)O
B7: Compound 358 (peptide)
peptide: X6-[dY][dK](DOTA)NT[Cha][azaGly]L[4‑amino‑1‑carbamimidoylpiperidine‑4‑carboxylic acid(Sarcosine)][dW]-NH2
B8: Compound 17 (peptide)
peptide: {DOTA}-[Sar][Sar]F[azaGly]L[X2]W-NH2
SMILES: Cc1ccc(CNCC(=O)N2CCC(NC(=O)[C@H](CC(C)C)NC(=O)NNC(=O)[C@H](Cc3ccccc3)NC(=O)CN(C)C(=O)CN(C)C(=O)CN3CCN(CC(=O)O)CCN(CC(=O)O)CCN(CC(=O)O)CC3)(C(=O)N[C@@H](Cc3c[nH]c4ccccc34)C(N)=O)CC2)cc1F
B9: Compound 335 (peptide)
peptide: {DOTA-Ahx}-[dK](4‑(p-tolyl)butanoyl)[dY][d2Nal]NTF[azaGly]L[Api(1-amidino)]W-NH2
B10: Compound 332 (peptide)
peptide: Octanoyl-[dY]K(DOTA)NTF[azaGly]L[Api(1-amidino)]Y-NH2
SMILES: CCCCCCCC(=O)N[C@H](Cc1ccc(O)cc1)C(=O)N[C@@H](CCCCNC(=O)CN1CCN(CC(=O)O)CCN(CC(=O)O)CCN(CC(=O)O)CC1)C(=O)N[C@@H](CC(N)=O)C(=O)N[C@H](C(=O)N[C@@H](Cc1ccccc1)C(=O)NNC(=O)N[C@@H](CC(C)C)C(=O)NC1(C(=O)N[C@@H](Cc2ccc(O)cc2)C(N)=O)CCN(C(=N)N)CC1)[C@@H](C)O
B11: Compound 359 (peptide)
peptide: {1‑(3-fluoro-4-methylphenyl)‑4‑oxo‑8,11‑dioxa‑2,5‑diazatetradecan‑14‑oyl}-[dY]K(DOTA)NTF[azaGly]L[4‑amino‑1‑carbamimidoylpiperidine‑4‑carboxylic acid(Sarcosine)][dW]-NH2
B12: Compound 365 (peptide)
peptide: {DOTA}-G[dY][d2Nal]NTF[azaGly]L[X2]W-NH2
SMILES: Cc1ccc(CNCC(=O)N2CCC(NC(=O)[C@H](CC(C)C)NC(=O)NNC(=O)[C@H](Cc3ccccc3)NC(=O)[C@@H](NC(=O)[C@H](CC(N)=O)NC(=O)[C@@H](Cc3ccc4ccccc4c3)NC(=O)[C@@H](Cc3ccc(O)cc3)NC(=O)CNC(=O)CN3CCN(CC(=O)O)CCN(CC(=O)O)CCN(CC(=O)O)CC3)[C@@H](C)O)(C(=O)N[C@@H](Cc3c[nH]c4ccccc34)C(N)=O)CC2)cc1F
B13: Compound 353 (peptide)
peptide: Octanoyl-[dY][dK](DOTA)NTF[azaGly]L[4‑amino‑1‑carbamimidoylpiperidine‑4‑carboxylic acid(Sarcosine)][dW]-NH2
B14: Compound 336 (peptide)
peptide: {DOTA-Ahx}-[dK](Butanoyl(4-(4-I-phenyl)))[dY][d2Nal]NTF[azaGly]L[Api(1-amidino)]W-NH2
SMILES: CC(C)C[C@H](NC(=O)NNC(=O)[C@H](Cc1ccccc1)NC(=O)[C@@H](NC(=O)[C@H](CC(N)=O)NC(=O)[C@@H](Cc1ccc2ccccc2c1)NC(=O)[C@@H](Cc1ccc(O)cc1)NC(=O)[C@@H](CCCCNC(=O)CCCc1ccc(I)cc1)NC(=O)CCCCCNC(=O)CN1CCN(CC(=O)O)CCN(CC(=O)O)CCN(CC(=O)O)CC1)[C@@H](C)O)C(=O)NC1(C(=O)N[C@@H](Cc2c[nH]c3ccccc23)C(N)=O)CCN(C(=N)N)CC1
B15: Compound 379 (peptide)
peptide: {HO(CH2CH2O)2CH2CH2CO}-[dY]K(DOTA)NTF[azaGly]L[X2]W-NH2
SMILES: Cc1ccc(CNCC(=O)N2CCC(NC(=O)[C@H](CC(C)C)NC(=O)NNC(=O)[C@H](Cc3ccccc3)NC(=O)[C@@H](NC(=O)[C@H](CC(N)=O)NC(=O)[C@H](CCCCNC(=O)CN3CCN(CC(=O)O)CCN(CC(=O)O)CCN(CC(=O)O)CC3)NC(=O)[C@@H](Cc3ccc(O)cc3)NC(=O)CCOCCOCCO)[C@@H](C)O)(C(=O)N[C@@H](Cc3c[nH]c4ccccc34)C(N)=O)CC2)cc1F
B16: Compound 354 (peptide)
peptide: Octanoyl-[dY][dK](DOTA)NTF[azaGly]L[4‑amino‑1‑carbamimidoylpiperidine‑4‑carboxylic acid(Sarcosine)]W-NH2
B17: Compound 355 (peptide)
peptide: Octanoyl-[dY][dK](DOTA)NT[Cha][azaGly]L[4‑amino‑1‑carbamimidoylpiperidine‑4‑carboxylic acid(Sarcosine)][dW]-NH2
B18: Compound 334 (peptide)
peptide: X10-[dY][dK](DOTA)NTF[azaGly]L[Api(1-amidino)]W-NH2
SMILES: CC(C)C[C@H](NC(=O)NNC(=O)[C@H](Cc1ccccc1)NC(=O)[C@@H](NC(=O)[C@H](CC(N)=O)NC(=O)[C@@H](CCCCNC(=O)CN1CCN(CC(=O)O)CCN(CC(=O)O)CCN(CC(=O)O)CC1)NC(=O)[C@@H](Cc1ccc(O)cc1)NC(=O)CCOCCOCCNC(=O)CCc1ccc(I)cc1)[C@@H](C)O)C(=O)NC1(C(=O)N[C@@H](Cc2c[nH]c3ccccc23)C(N)=O)CCN(C(=N)N)CC1
B19: Compound 330 (peptide)
peptide: Palmitoyl-[dY]K(DOTA)NTF[azaGly]L[Api(1-amidino)]Y-NH2
SMILES: CCCCCCCCCCCCCCCC(=O)N[C@H](Cc1ccc(O)cc1)C(=O)N[C@@H](CCCCNC(=O)CN1CCN(CC(=O)O)CCN(CC(=O)O)CCN(CC(=O)O)CC1)C(=O)N[C@@H](CC(N)=O)C(=O)N[C@H](C(=O)N[C@@H](Cc1ccccc1)C(=O)NNC(=O)N[C@@H](CC(C)C)C(=O)NC1(C(=O)N[C@@H](Cc2ccc(O)cc2)C(N)=O)CCN(C(=N)N)CC1)[C@@H](C)O
B20: Compound 366 (peptide)
peptide: {DOTA-Ahx}-[dY][dW]NTF[azaGly]L[X2]Y-NH2
SMILES: Cc1ccc(CNCC(=O)N2CCC(NC(=O)[C@H](CC(C)C)NC(=O)NNC(=O)[C@H](Cc3ccccc3)NC(=O)[C@@H](NC(=O)[C@H](CC(N)=O)NC(=O)[C@@H](Cc3c[nH]c4ccccc34)NC(=O)[C@@H](Cc3ccc(O)cc3)NC(=O)CCCCCNC(=O)CN3CCN(CC(=O)O)CCN(CC(=O)O)CCN(CC(=O)O)CC3)[C@@H](C)O)(C(=O)N[C@@H](Cc3ccc(O)cc3)C(N)=O)CC2)cc1F
B21: Compound 360 (peptide)
peptide: [N‑(3-fluoro-4-methylbenzyl)glycine][dY]K(DOTA)NTF[azaGly]L[4‑amino‑1‑carbamimidoylpiperidine‑4‑carboxylic acid(Sarcosine)][dW]-NH2
B22: Compound 338 (peptide)
peptide: X6-[dY][dK](DOTA)NTF[azaGly]L[Api(1-amidino)]W-NH2
SMILES: Cc1ccc(CCC(=O)NCCOCCOCCC(=O)N[C@H](Cc2ccc(O)cc2)C(=O)N[C@H](CCCCNC(=O)CN2CCN(CC(=O)O)CCN(CC(=O)O)CCN(CC(=O)O)CC2)C(=O)N[C@@H](CC(N)=O)C(=O)N[C@H](C(=O)N[C@@H](Cc2ccccc2)C(=O)NNC(=O)N[C@@H](CC(C)C)C(=O)NC2(C(=O)N[C@@H](Cc3c[nH]c4ccccc34)C(N)=O)CCN(C(=N)N)CC2)[C@@H](C)O)cc1

For the assay, the target named is human kisspeptin receptor (KISS1R) (human), Q969F8. The assay is described as follows: radioligand competition, hKISS1R membranes; legend: A is <10 nM.
human kisspeptin receptor (KISS1R) (human), Q969F8, sequence (Q969F8 whole entry): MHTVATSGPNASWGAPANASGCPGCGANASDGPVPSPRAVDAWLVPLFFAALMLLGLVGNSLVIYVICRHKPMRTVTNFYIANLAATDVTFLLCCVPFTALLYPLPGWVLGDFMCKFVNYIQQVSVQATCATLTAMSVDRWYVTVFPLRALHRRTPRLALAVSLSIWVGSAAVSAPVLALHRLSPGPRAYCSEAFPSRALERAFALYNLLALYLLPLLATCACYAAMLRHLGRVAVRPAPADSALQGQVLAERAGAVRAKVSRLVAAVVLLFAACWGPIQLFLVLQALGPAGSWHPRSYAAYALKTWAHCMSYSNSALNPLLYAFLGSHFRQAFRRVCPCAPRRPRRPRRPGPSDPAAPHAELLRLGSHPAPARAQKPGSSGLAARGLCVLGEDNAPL
The term Ki denotes the dissociation constant of the complex between target and ligand, obtained from inhibition or displacement. Low readings indicate a stronger hold on the target, high ones a looser hold on the target. Molecule B1 returned a Ki below 10 nM. In the case of B2, the Ki was below 10 nM. In the case of B3 it was below 10 nM.

As for B4, the inhibitory constant (Ki) is below 10 nM. B5 had a Ki below 10 nM.

In the case of B6, the Ki is below 10 nM. The molecule B7 showed an inhibitory constant (Ki) below 10 nM. In the case of B8 it was below 10 nM. In the case of B9 it was below 10 nM; in that of B10, below 10 nM; in that of B11, below 10 nM. B12 gave an inhibitory constant (Ki) below 10 nM.

Regarding B13, the Ki was below 10 nM. Molecule B14 came in with an inhibitory constant (Ki) below 10 nM. B15 had a Ki below 10 nM.

Consider B16, for which the Ki was below 10 nM.

On to B17, for which the Ki is below 10 nM. Consider B18, for which the inhibitory constant (Ki) was below 10 nM. In the case of B19, the Ki was below 10 nM. Turning to B20, the Ki was below 10 nM. Molecule B21 displayed a Ki below 10 nM.

Turning to B22, the Ki was below 10 nM.
